{
  "source": "paper PMC5618010",
  "about": "(Viruses, 2017)",
  "molecules": {"B1": {"name": "R28A-HD5: HD5 mutant R28A, chemically synthesized; cationicity (peptide, UniProt Q01523 20-94, looked up, variant R28A)", "Defensin alpha 5": "ESLQERADEATTQKQSGEDNQDLAISFAGNGLSALRTSGSQARATCYCRTGRCATRESLSGVCEISGRLYALCCR", "modifications": "Defensin-5"}, "B2": {"name": "Y4A-HD5: HD5 mutant Y4A, chemically synthesized; hydrophobicity (peptide, UniProt Q01523 20-94, looked up, variant Y4A)", "Defensin alpha 5": "B1 Defensin alpha 5 with Y47A, A71R", "modifications": "Defensin-5"}, "B3": {"name": "Y27A-HD5: HD5 mutant Y27A, chemically synthesized; hydrophobicity (peptide, UniProt Q01523 20-94, looked up, variant Y27A)", "Defensin alpha 5": "B1 Defensin alpha 5 with Y70A, A71R", "modifications": "Defensin-5"}, "B4": {"name": "S15A-HD5: HD5 mutant S15A, chemically synthesized (peptide, UniProt Q01523 20-94, looked up, variant S15A)", "Defensin alpha 5": "B1 Defensin alpha 5 with S58A, A71R", "modifications": "Defensin-5"}, "B5": {"name": "L16A-HD5: HD5 mutant L16A, chemically synthesized; hydrophobicity (peptide, UniProt Q01523 20-94, looked up, variant L16A)", "Defensin alpha 5": "B1 Defensin alpha 5 with L59A, A71R", "modifications": "Defensin-5"}, "B6": {"name": "human α-defensin 5 (peptide, UniProt Q01523 20-94, looked up)", "Defensin alpha 5": "B1 Defensin alpha 5 with A71R", "modifications": "Defensin-5"}},
  "type_in_all_cases": "cell-based",
  "key": {"HIV-1JR-FL [1]": {"tested_on": "HIV-1JR-FL"}, "HIV-1JR-FL [2]": {"tested_on": "HIV-1JR-FL", "remark": "listed apart in the source"}, "HIV-1JR-FL [3]": {"tested_on": "HIV-1JR-FL", "remark": "listed apart in the source"}},
  "note": "Where a chain is given by its changes, count along the chain named. In names and notes the source's numbering stands. No end group written: not given here.",
  "data": [
    {"molecule": "Ac-HD6: HD6 acetylated at the N-terminus (Ac-AFTCHCRRSCYSTEYSYGTCTVMGINHRFCCL; ends and bridges not checked; UniProt Q01524 69-100, looked up)", "values": [
      {"measurement": "Attachment 10 μg/mL: relative percent of HIV attachment compared to WT HD6", "setting": "HIV-1JR-FL [1]", "result": "57 ± 14", "unit": "%"},
      {"measurement": "Attachment 30 μg/mL: relative percent of HIV attachment compared to WT HD6", "setting": "HIV-1JR-FL [1]", "result": "87 ± 19", "unit": "%"},
      {"measurement": "Late RT production compared to WT HD6", "setting": "HIV-1JR-FL [2]", "result": "comparable"},
      {"measurement": "Infectivity 10 μg/mL: relative percent of HIV infectivity compared to WT HD6", "setting": "HIV-1JR-FL [3]", "result": "58 ± 24", "unit": "%"},
      {"measurement": "Infectivity 30 μg/mL: relative percent of HIV infectivity compared to WT HD6", "setting": "HIV-1JR-FL [3]", "result": "175 ± 43", "unit": "%"}
    ]},
    {"molecule": "B1", "values": [
      {"measurement": "Attachment 10 μg/mL: relative percent of HIV attachment compared to WT HD5", "setting": "HIV-1JR-FL [1]", "result": "54 ± 17", "unit": "%"},
      {"measurement": "Attachment 30 μg/mL: relative percent of HIV attachment compared to WT HD5", "setting": "HIV-1JR-FL [1]", "result": "59 ± 19", "unit": "%"},
      {"measurement": "Reduction of ability to promote HIV attachment compared to WT HD5", "setting": "HIV-1JR-FL [1]", "result": 41, "unit": "%"},
      {"measurement": "Infectivity 10 μg/mL: relative percent of HIV infectivity compared to WT HD5", "setting": "HIV-1JR-FL [3]", "result": "66 ± 5", "unit": "%"},
      {"measurement": "Infectivity 30μg/mL: relative percent of HIV infectivity compared to WT HD5", "setting": "HIV-1JR-FL [3]", "result": "52 ± 3", "unit": "%"},
      {"measurement": "Loss of HIV attachment-enhancing and infection-enhancing activities", "setting": "HIV-1JR-FL [3]", "result": "about 50%"}
    ]},
    {"molecule": "B2", "values": [
      {"measurement": "Attachment 10 μg/mL: relative percent of HIV attachment compared to WT HD5", "setting": "HIV-1JR-FL [1]", "result": "134 ± 26", "unit": "%"},
      {"measurement": "Attachment 30 μg/mL: relative percent of HIV attachment compared to WT HD5", "setting": "HIV-1JR-FL [1]", "result": "106 ± 3", "unit": "%"},
      {"measurement": "Infectivity 10 μg/mL: relative percent of HIV infectivity compared to WT HD5", "setting": "HIV-1JR-FL [3]", "result": "136 ± 42", "unit": "%"},
      {"measurement": "Infectivity 30μg/mL: relative percent of HIV infectivity compared to WT HD5", "setting": "HIV-1JR-FL [3]", "result": "75 ± 14", "unit": "%"}
    ]},
    {"molecule": "B3", "values": [
      {"measurement": "Attachment 10 μg/mL: relative percent of HIV attachment compared to WT HD5", "setting": "HIV-1JR-FL [1]", "result": "19 ± 11", "unit": "%"},
      {"measurement": "Attachment 30 μg/mL: relative percent of HIV attachment compared to WT HD5", "setting": "HIV-1JR-FL [1]", "result": "18 ± 9", "unit": "%"},
      {"measurement": "Infectivity 10 μg/mL: relative percent of HIV infectivity compared to WT HD5", "setting": "HIV-1JR-FL [3]", "result": "28 ± 18", "unit": "%"},
      {"measurement": "Infectivity 30μg/mL: relative percent of HIV infectivity compared to WT HD5", "setting": "HIV-1JR-FL [3]", "result": "29 ± 9", "unit": "%"}
    ]},
    {"molecule": "B4", "values": [
      {"measurement": "Attachment 10 μg/mL: relative percent of HIV attachment compared to WT HD5", "setting": "HIV-1JR-FL [1]", "result": "118± 9", "unit": "%"},
      {"measurement": "Attachment 30 μg/mL: relative percent of HIV attachment compared to WT HD5", "setting": "HIV-1JR-FL [1]", "result": "95 ± 16", "unit": "%"},
      {"measurement": "Infectivity 10 μg/mL: relative percent of HIV infectivity compared to WT HD5", "setting": "HIV-1JR-FL [3]", "result": "166 ± 30", "unit": "%"},
      {"measurement": "Infectivity 30μg/mL: relative percent of HIV infectivity compared to WT HD5", "setting": "HIV-1JR-FL [3]", "result": "81 ± 11", "unit": "%"}
    ]},
    {"molecule": "B5", "values": [
      {"measurement": "Attachment 10 μg/mL: relative percent of HIV attachment compared to WT HD5", "setting": "HIV-1JR-FL [1]", "result": "17 ± 5", "unit": "%"},
      {"measurement": "Attachment 30 μg/mL: relative percent of HIV attachment compared to WT HD5", "setting": "HIV-1JR-FL [1]", "result": "27 ± 7", "unit": "%"},
      {"measurement": "Infectivity 10 μg/mL: relative percent of HIV infectivity compared to WT HD5", "setting": "HIV-1JR-FL [3]", "result": "10 ± 3", "unit": "%"},
      {"measurement": "Infectivity 30μg/mL: relative percent of HIV infectivity compared to WT HD5", "setting": "HIV-1JR-FL [3]", "result": "30 ± 3", "unit": "%"}
    ]},
    {"molecule": "B6", "values": [
      {"measurement": "Attachment 10 μg/mL: relative percent of HIV attachment compared to WT HD5", "setting": "HIV-1JR-FL [1]", "result": "100 ± 0", "unit": "%"},
      {"measurement": "Attachment 30 μg/mL: relative percent of HIV attachment compared to WT HD5", "setting": "HIV-1JR-FL [1]", "result": "100 ± 0", "unit": "%"},
      {"measurement": "Infectivity 10 μg/mL: relative percent of HIV infectivity compared to WT HD5", "setting": "HIV-1JR-FL [3]", "result": "100 ± 0", "unit": "%"},
      {"measurement": "Infectivity 30μg/mL: relative percent of HIV infectivity compared to WT HD5", "setting": "HIV-1JR-FL [3]", "result": "100 ± 0", "unit": "%"}
    ]}
  ]
}
